In publication PMC10138348, “Continuous Fluorescent Sirtuin Activity Assay Based on Fatty Acylated Lysines” (International Journal of Molecular Sciences, 2023):
pKd: −log10 of the molar value.

What was measured:
[1] = target: F6, deacylated fluorescein-labelled peptide product of F4 (fluorophore in +2 position); test: other fluorescence titration; fluorescence spectra of the labelled peptide with increasing concentrations of BSA; excitation 490 nm, relative intensity at 517 nm against BSA concentration; n = 1
[2] = target: F4, TNFα-derived peptide with a myristoylated lysine and fluorescein-labelled cysteine in the +2 position; test: as above
[3] = target: F6, deacylated fluorescein-labelled peptide product of F4 (fluorophore in +2 position); test: fluorescence polarisation; BSA in serial dilution from 752 µM, labelled peptide fixed; 384-well plate, 20 mM Tris-HCl pH 7.8, 150 mM NaCl, 5 mM MgCl2; three independent replicates
[4] = target: F4, TNFα-derived peptide with a myristoylated lysine and fluorescein-labelled cysteine in the +2 position; test: as above

Sequence of bovine serum albumin (P02769 25-607): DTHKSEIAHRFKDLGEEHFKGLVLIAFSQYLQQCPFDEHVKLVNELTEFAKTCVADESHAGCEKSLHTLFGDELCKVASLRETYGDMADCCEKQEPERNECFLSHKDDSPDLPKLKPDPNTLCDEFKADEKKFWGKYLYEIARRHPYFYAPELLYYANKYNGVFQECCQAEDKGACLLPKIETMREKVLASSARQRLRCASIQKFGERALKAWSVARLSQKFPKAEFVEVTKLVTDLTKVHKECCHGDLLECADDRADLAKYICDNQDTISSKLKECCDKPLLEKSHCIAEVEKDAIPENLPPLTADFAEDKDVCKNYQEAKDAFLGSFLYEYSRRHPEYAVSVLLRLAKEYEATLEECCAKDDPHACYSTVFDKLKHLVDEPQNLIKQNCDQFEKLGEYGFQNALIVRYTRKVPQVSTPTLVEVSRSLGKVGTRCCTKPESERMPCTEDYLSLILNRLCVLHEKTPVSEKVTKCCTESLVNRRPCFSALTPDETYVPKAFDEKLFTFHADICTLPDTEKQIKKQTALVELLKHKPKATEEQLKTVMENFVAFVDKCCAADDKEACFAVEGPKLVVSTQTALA

fold KD against the F4/BSA complex [1]: > 100 fold
pKd [2]: 5.92
fold KD against the F4/BSA complex [3]: > 100 fold
pKd [4]: 5.80
Substance: bovine serum albumin (from UniProt P02769 25-607) (natural protein)
